Source: patent US20250019451A1 (HIFIBIO, published 2025)

T1: human CCR4 (human, UniProt P51679 1-360)
T1 construct: Expressed on cells for flow cytometry; also called hCCR4
T1 sequence: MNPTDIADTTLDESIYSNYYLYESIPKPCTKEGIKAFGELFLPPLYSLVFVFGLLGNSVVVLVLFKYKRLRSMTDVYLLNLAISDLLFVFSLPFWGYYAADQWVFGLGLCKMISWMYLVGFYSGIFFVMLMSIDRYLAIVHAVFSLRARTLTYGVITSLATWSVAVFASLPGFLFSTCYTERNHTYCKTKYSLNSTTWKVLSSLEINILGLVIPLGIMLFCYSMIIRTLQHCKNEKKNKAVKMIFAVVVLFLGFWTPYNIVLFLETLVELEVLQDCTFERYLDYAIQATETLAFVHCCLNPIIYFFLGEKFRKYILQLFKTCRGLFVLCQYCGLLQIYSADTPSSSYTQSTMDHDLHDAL

T2: mouse CCR8 (mouse, UniProt P56484 1-353)
T2 construct: Transiently expressed on ExpiHEK293 cells, fused to GFP via cleavable linker
T2 sequence: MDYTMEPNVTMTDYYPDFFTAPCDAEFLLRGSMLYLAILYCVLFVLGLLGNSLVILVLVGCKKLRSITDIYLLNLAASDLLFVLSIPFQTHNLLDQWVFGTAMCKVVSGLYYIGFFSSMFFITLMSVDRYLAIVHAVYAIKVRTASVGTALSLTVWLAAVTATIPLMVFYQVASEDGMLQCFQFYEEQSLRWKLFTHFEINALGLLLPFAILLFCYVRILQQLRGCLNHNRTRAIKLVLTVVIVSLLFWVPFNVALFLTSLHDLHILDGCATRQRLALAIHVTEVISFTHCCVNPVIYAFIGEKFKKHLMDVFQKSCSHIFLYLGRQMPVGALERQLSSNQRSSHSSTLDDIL


Key:
[1] = molecular target: T3, human CCR8 (human, UniProt P51685 1-355); assay: cell-based or functional assay
[2] = molecular target: T3, human CCR8; assay: flow cytometry on ExpiHEK293 cells transiently expressing human CCR8, 50 nM antibody
Description: (§1) Briefly, purified antibodies (saturating concentration of 50 nM, FIG. 3A or concentration range from 100 nM, 3-fold dilution, FIGS. 3B-3C) were incubated with 1×10⁵ ExpiHEK293 cells transiently transfected with either human (SEQ ID NO:11; Uniprot/Swiss-Prot: P51685), mouse CCR8 (SEQ ID NO: 64; Uniprot/Swiss-Prot: P56484), or cynoCCR8 (SEQ ID NO: 65; Uniprot/Swiss-Prot: G7NYJ2) fused to GFP protein via cleavable linker, for 30 minutes at 4° C. After washing, secondary anti-human-AF647 antibody (Jackson ImmunoResearch; West Grove, PA) was incubated at 12 nM for 30 minutes in PBS. After washing, cell pellets were resuspended in 50 μL PBS and samples were analyzed by flow cytometry on iQue cytometer (Sartorious, Goettingen, Germany) using Forecyt software (Intellicyt, Ann Arbor, MI). Mean of fluorescence intensity for the specific signal among GFP+ cells are represented in FIGS. 3A-3C. Titration curve of cross-reactive antibodies against mouse CCR8 and cyno CCR8 are presented in FIGS. 3B and 3C, respectively.

[3] = molecular target: T4, cynoCCR8 (cynomolgus, UniProt O97665 1-356 (rhesus entry)); assay: flow cytometry on ExpiHEK293 cells transiently expressing cynoCCR8
T4 construct: Transiently expressed on ExpiHEK293 cells, fused to GFP via cleavable linker; also called cynomolgus CCR8
Description: as §1

[4] = molecular target: T1, human CCR4; assay: flow cytometry on transiently transfected ExpiHEK293 cells
[5] = molecular target: T2, mouse CCR8; assay: flow cytometry on ExpiHEK293 cells transiently expressing mouse CCR8
Description: as §1

[6] = molecular target: T3, human CCR8; assay: flow cytometry on transiently transfected ExpiHEK293 cells, 50 nM antibody
Description: as §1

[7] = molecular target: T4, cynoCCR8; assay: flow cytometry titration on ExpiHEK293 cells transiently expressing cynoCCR8
Description: as §1

[8] = molecular target: T2, mouse CCR8; assay: flow cytometry titration on ExpiHEK293 cells transiently expressing mouse CCR8
Description: as §1

T4 sequence (O97665 other isoform, or with tags, fused parts or gaps): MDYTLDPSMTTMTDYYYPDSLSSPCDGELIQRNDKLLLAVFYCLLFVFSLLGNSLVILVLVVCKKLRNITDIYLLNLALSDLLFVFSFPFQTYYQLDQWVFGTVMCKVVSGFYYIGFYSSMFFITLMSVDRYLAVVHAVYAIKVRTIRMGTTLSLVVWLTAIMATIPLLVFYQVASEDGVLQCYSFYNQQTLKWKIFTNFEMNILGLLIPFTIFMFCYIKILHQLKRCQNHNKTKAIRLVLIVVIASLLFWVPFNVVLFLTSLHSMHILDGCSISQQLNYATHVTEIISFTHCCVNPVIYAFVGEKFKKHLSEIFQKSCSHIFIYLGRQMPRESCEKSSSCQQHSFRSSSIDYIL

Binder | ADCC NK killing of M300.19 cells expressing low copies of CCR8, EC50 [1] | binding result [2] | binding result [3] | binding result [4] | binding result [5] | binding result [6] | EC50 [7] | EC50 [8]
HFB11-10 parental antibody (non-humanized) in ADCC enhanced format (antibody, V domains shown) VH: EVQLVETGGGLVQPKGSLKLSCAASGFRFNTNAMNWVRQAPGKDLEWVARIRSKSNNYATYYADSVKDRFTISRDDSQSMLYLQMNNVKTEDTAMYYCVRGSDNNYYYAMDYWGQGTSVTVSS VL: DIVMTQAAPSVPVTPGESVSISCRSSKSLLHSNGNTYLYWFLQRPGQSPQLLIYRMSNLASGVPDRFSGSGSGTAFTLRISRVEAEDVGVYYCMQHLEYPFTFGSGTKLEIK | 0.003 nM |  |  |  |  |  |  | 
HFB11-5 (antibody, human IgG1, V domains shown) VH: EVQLVESGGGLVQPRGSLKLSCTASGFSFNAYAMNWVRQAPGKGLEWVARIRTKSNNYATYYADSVKDRFTISRDDSESMLYLQMKNLKTEDTAMYYCVRGGYGNGGYYFDYWGQGTTLTVSS VL: DIVMTQAAPSVTVTPGESASISCRSSKSLLHRNGNSYLYWFLQRPGQSPQLLIYRISNLASGVPDRFSGSGSGTAFTLRISRVEAEDVGVYYCMQHLEYPFTFGSGTKLEIK |  | binds | no binding (tested: 50 nM) | no binding (tested: 50 nM) | no binding (tested: 50 nM) |  |  | 
HFB11-19 (antibody, human IgG1, V domains shown) VH: QVQLQQSGAELVKPGASVKLSCKASGYTFTDYIIHWVKQRSGQGLEWIGWFSPRNNYVKYNERFTDKATLTADKSSNTVYMELSSLTSEDSAVYFCSRHGRNSIGFAYWGQGTLVTVSA VL: DIVMTQAAPSVPVTPGESVSISCRSSKSLLNSNGNTYLYWFLQRPGQSPQLLIYRMSNLASGVPDRFSGSGSGTAFTLRISRVEAEDVGVYYCMQHLEYPYTFGGGTKLEIK |  |  |  | no binding (tested: 50 nM) |  | binds | 1.8 nM | 
HFB11-2 (antibody, human IgG1, V domains shown) VH: EVQLVESGGGLVQPKGSLKLSCAASGFSFNTYAMNWVRQAPGKGLEWVARIRSKSNNYATYYADSVKDRFTISRDDSERMLYLQMNNLKTEDTAMYYCVRGGSYYSNHYFDYWGQGTTLTVSS VL: DIVMTQAAPSVPVTPGESVSISCRSSKSLLHSNGNTYLYWFLQRPGQSPQLLIYQMSNLASGVPDRFSGSGSGTAFTLRISRVEAEDVGVYYCMQHLEYPFTFGAGTKLELK |  |  |  | no binding (tested: 50 nM) |  | binds |  | < 1 nM
HFB11-10 (antibody, V domains shown, Mouse variable domains; also called H11-10) VH: EVQLVETGGGLVQPKGSLKLSCAASGFRFNTNAMNWVRQAPGKDLEWVARIRSKSNNYATYYADSVKDRFTISRDDSQSMLYLQMNNVKTEDTAMYYCVRGSDNNYYYAMDYWGQGTSVTVSS VL: DIVMTQAAPSVPVTPGESVSISCRSSKSLLHSNGNTYLYWFLQRPGQSPQLLIYRMSNLASGVPDRFSGSGSGTAFTLRISRVEAEDVGVYYCMQHLEYPFTFGSGTKLEIK |  |  | no binding (tested: 50 nM) | no binding (tested: 50 nM) | no binding (tested: 50 nM) |  |  | 
HFB11-3 (antibody, human IgG1, V domains shown) VH: EVQLVESGGGLVQPQGSLKLSCAASGFSFNTYAMNWVRQAPGKGLQWVARIRSKSNNYATYYADSVKDRFTISRDDSESMLYLQMNNLKTEDAAMYYCVRGKDANYFYAMDYWGQGTSVTVSS VL: DIVMTQAAPSVPVTPGESVSISCRSSKSLLHSNGNTYLYWFLQRPGQSPQLLIYRMSNLASGVPDRFSGSGSGTAFTLRISRVEAEDVGVYYCMQHLEYPFTFGAGTKLELK |  |  | no binding (tested: 50 nM) | no binding (tested: 50 nM) | no binding (tested: 50 nM) |  |  | 
HFB11-8 (antibody, human IgG1, V domains shown) VH: EVQLVETGGGLVQPKGSLKLSCAASGFRFNTNAMNWVRQAPGKGLEWVARIRSKSNNYATHYVDSVKDRFTVSRDDSQSMLYLQMNNLKAEDTAMYYCVRGSDNNYYYAMDYWGQGTSVTVSS VL: DIVMTQAAPSVPVTPGESVSISCRSSKSLLHSNGNTYLYWFLQRPGQSPQLLIYRMSNLASGVPDRFSGSGSGTSFTLRISRVEVEDVGVYYCMQHLEYPFTFGSGTKLEIK |  | binds | no binding (tested: 50 nM) | no binding (tested: 50 nM) | no binding (tested: 50 nM) |  |  | 
HFB11-21 (antibody, human IgG1, V domains shown, also called HFB-21) VH: QVQLQQPGAELVKPGASVKLSCKASGYTFISYWMHWVKQRPGRGLEWIGRIDPNSGKTKYNEKFKTKATLTVDKSSSTAYMHLNSLTSDDSAVYYCAREGWGDYWGQGTTLTVSS VL: DIVLTQSPASLAVSLGQRATISCRASESVDNYGISFMHWYQQKPGQPPRLLIYRASNLASGIPARFSGSGSSTDFTLTINPVETDDIATYYCQQSNKDPRTFGGGTKLEIK |  |  |  | no binding (tested: 50 nM) |  | binds | 15.8 nM | 53 nM
